# B1: BRCA1-A complex subunit Abraxas 1 (Homo sapiens), Q6UWZ7 (parent)
# chain: MEGESTSAVLSGFVLGALAFQHLNTDSDTEGFLLGEVKGEAKNSITDSQMDDVEVVYTIDIQKYIPCYQLFSFYNSSGEVNEQALKKILSNVKKNVVGWYKFRRHSDQIMTFRERLLHKNLQEHFSNQDLVFLLLTPSIITESCSTHRLEHSLYKPQKGLFHRVPLVVANLGMSEQLGYKTVSGSCMSTGFSRAVQTHSSKFFEEDGSLKEVHKINEMYASLQEELKSICKKVEDSEQAVDKLVKDVNRLKREIEKRRGAQIQAAREKNIQKDPQENIFLCQALRTFFPNSEFLHSCVMSLKNRHVSKSSCNYNHHLDVVDNLTLMVEHTDIPEASPASTPQIIKHKALDLDDRWQFKRSRLLDTQDKRSKADTGSSNQDKASKMSSPETDEEIEKMKGFGEYSRSPTF
# B2: Myosin-9 (Homo sapiens), P35579 (parent)
# chain: MAQQAADKYLYVDKNFINNPLAQADWAAKKLVWVPSDKSGFEPASLKEEVGEEAIVELVENGKKVKVNKDDIQKMNPPKFSKVEDMAELTCLNEASVLHNLKERYYSGLIYTYSGLFCVVINPYKNLPIYSEEIVEMYKGKKRHEMPPHIYAITDTAYRSMMQDREDQSILCTGESGAGKTENTKKVIQYLAYVASSHKSKKDQGELERQLLQANPILEAFGNAKTVKNDNSSRFGKFIRINFDVNGYIVGANIETYLLEKSRAIRQAKEERTFHIFYYLLSGAGEHLKTDLLLEPYNKYRFLSNGHVTIPGQQDKDMFQETMEAMRIMGIPEEEQMGLLRVISGVLQLGNIVFKKERNTDQASMPDNTAAQKVSHLLGINVTDFTRGILTPRIKVGRDYVQKAQTKEQADFAIEALAKATYERMFRWLVLRINKALDKTKRQGASFIGILDIAGFEIFDLNSFEQLCINYTNEKLQQLFNHTMFILEQEEYQREGIEWNFIDFGLDLQPCIDLIEKPAGPPGILALLDEECWFPKATDKSFVEKVMQEQGTHPKFQKPKQLKDKADFCIIHYAGKVDYKADEWLMKNMDPLNDNIATLLHQSSDKFVSELWKDVDRIIGLDQVAGMSETALPGAFKTRKGMFRTVGQLYKEQLAKLMATLRNTNPNFVRCIIPNHEKKAGKLDPHLVLDQLRCNGVLEGIRICRQGFPNRVVFQEFRQRYEILTPNSIPKGFMDGKQACVLMIKALELDSNLYRIGQSKVFFRAGVLAHLEEERDLKITDVIIGFQACCRGYLARKAFAKRQQQLTAMKVLQRNCAAYLKLRNWQWWRLFTKVKPLLQVSRQEEEMMAKEEELVKVREKQLAAENRLTEMETLQSQLMAEKLQLQEQLQAETELCAEAEELRARLTAKKQELEEICHDLEARVEEEEERCQHLQAEKKKMQQNIQELEEQLEEEESARQKLQLEKVTTEAKLKKLEEEQIILEDQNCKLAKEKKLLEDRIAEFTTNLTEEEEKSKSLAKLKNKHEAMITDLEERLRREEKQRQELEKTRRKLEGDSTDLSDQIAELQAQIAELKMQLAKKEEELQAALARVEEEAAQKNMALKKIRELESQISELQEDLESERASRNKAEKQKRDLGEELEALKTELEDTLDSTAAQQELRSKREQEVNILKKTLEEEAKTHEAQIQEMRQKHSQAVEELAEQLEQTKRVKANLEKAKQTLENERGELANEVKVLLQGKGDSEHKRKKVEAQLQELQVKFNEGERVRTELADKVTKLQVELDNVTGLLSQSDSKSSKLTKDFSALESQLQDTQELLQEENRQKLSLSTKLKQVEDEKNSFREQLEEEEEAKHNLEKQIATLHAQVADMKKKMEDSVGCLETAEEVKRKLQKDLEGLSQRHEEKVAAYDKLEKTKTRLQQELDDLLVDLDHQRQSACNLEKKQKKFDQLLAEEKTISAKYAEERDRAEAEAREKETKALSLARALEEAMEQKAELERLNKQFRTEMEDLMSSKDDVGKSVHELEKSKRALEQQVEEMKTQLEELEDELQATEDAKLRLEVNLQAMKAQFERDLQGRDEQSEEKKKQLVRQVREMEAELEDERKQRSMAVAARKKLEMDLKDLEAHIDSANKNRDEAIKQLRKLQAQMKDCMRELDDTRASREEILAQAKENEKKLKSMEAEMIQLQEELAAAERAKRQAQQERDELADEIANSSGKGALALEEKRRLEARIAQLEEELEEEQGNTELINDRLKKANLQIDQINTDLNLERSHAQKNENARQQLERQNKELKVKLQEMEGTVKSKYKASITALEAKIAQLEEQLDNETKERQAACKQVRRTEKKLKDVLLQVDDERRNAEQYKDQADKASTRLKQLKRQLEEAEEEAQRANASRRKLQRELEDATETADAMNREVSSLKNKLRRGDLPFVVPRRMARKGAGDGSDEEVDGKADGAEAKPAE
# partner: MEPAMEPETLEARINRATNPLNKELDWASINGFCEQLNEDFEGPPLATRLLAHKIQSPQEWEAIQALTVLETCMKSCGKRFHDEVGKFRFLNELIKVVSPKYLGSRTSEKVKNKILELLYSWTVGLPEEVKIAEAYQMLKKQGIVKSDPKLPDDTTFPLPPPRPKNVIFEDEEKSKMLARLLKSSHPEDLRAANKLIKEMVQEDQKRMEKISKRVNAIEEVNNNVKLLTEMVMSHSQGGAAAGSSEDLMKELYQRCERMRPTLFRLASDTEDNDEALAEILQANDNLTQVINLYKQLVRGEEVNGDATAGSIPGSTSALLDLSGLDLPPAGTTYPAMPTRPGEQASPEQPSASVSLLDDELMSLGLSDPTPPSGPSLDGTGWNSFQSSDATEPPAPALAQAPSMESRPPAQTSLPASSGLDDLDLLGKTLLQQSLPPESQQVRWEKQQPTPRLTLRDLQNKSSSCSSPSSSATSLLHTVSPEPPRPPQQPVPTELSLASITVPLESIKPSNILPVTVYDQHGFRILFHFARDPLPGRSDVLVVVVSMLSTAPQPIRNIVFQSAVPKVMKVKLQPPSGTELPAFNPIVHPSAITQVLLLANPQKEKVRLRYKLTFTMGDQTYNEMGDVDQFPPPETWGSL
# B3: Mitotic checkpoint serine/threonine-protein kinase BUB1 (Homo sapiens), O43683 (parent)
# chain: MDTPENVLQMLEAHMQSYKGNDPLGEWERYIQWVEENFPENKEYLITLLEHLMKEFLDKKKYHNDPRFISYCLKFAEYNSDLHQFFEFLYNHGIGTLSSPLYIAWAGHLEAQGELQHASAVLQRGIQNQAEPREFLQQQYRLFQTRLTETHLPAQARTSEPLHNVQVLNQMITSKSNPGNNMACISKNQGSELSGVISSACDKESNMERRVITISKSEYSVHSSLASKVDVEQVVMYCKEKLIRGESEFSFEELRAQKYNQRRKHEQWVNEDRHYMKRKEANAFEEQLLKQKMDELHKKLHQVVETSHEDLPASQERSEVNPARMGPSVGSQQELRAPCLPVTYQQTPVNMEKNPREAPPVVPPLANAISAALVSPATSQSIAPPVPLKAQTVTDSMFAVASKDAGCVNKSTHEFKPQSGAEIKEGCETHKVANTSSFHTTPNTSLGMVQATPSKVQPSPTVHTKEALGFIMNMFQAPTLPDISDDKDEWQSLDQNEDAFEAQFQKNVRSSGAWGVNKIISSLSSAFHVFEDGNKENYGLPQPKNKPTGARTFGERSVSRLPSKPKEEVPHAEEFLDDSTVWGIRCNKTLAPSPKSPGDFTSAAQLASTPFHKLPVESVHILEDKENVVAKQCTQATLDSCEENMVVPSRDGKFSPIQEKSPKQALSSHMYSASLLRLSQPAAGGVLTCEAELGVEACRLTDTDAAIAEDPPDAIAGLQAEWMQMSSLGTVDAPNFIVGNPWDDKLIFKLLSGLSKPVSSYPNTFEWQCKLPAIKPKTEFQLGSKLVYVHHLLGEGAFAQVYEATQGDLNDAKNKQKFVLKVQKPANPWEFYIGTQLMERLKPSMQHMFMKFYSAHLFQNGSVLVGELYSYGTLLNAINLYKNTPEKVMPQGLVISFAMRMLYMIEQVHDCEIIHGDIKPDNFILGNGFLEQDDEDDLSAGLALIDLGQSIDMKLFPKGTIFTAKCETSGFQCVEMLSNKPWNYQIDYFGVAATVYCMLFGTYMKVKNEGGECKPEGLFRRLPHLDMWNEFFHVMLNIPDCHHLPSLDLLRQKLKKVFQQHYTNKIRALRNRLIVLLLECKRSRK
# B4: "Poly(A) RNA polymerase, mitochondrial" (Homo sapiens), Q9NVV4 (parent)
# chain: MAVPGVGLLTRLNLCARRRTRVQRPIVRLLSCPGTVAKDLRRDEQPSGSVETGFEDKIPKRRFSEMQNERREQAQRTVLIHCPEKISENKFLKYLSQFGPINNHFFYESFGLYAVVEFCQKESIGSLQNGTHTPSTAMETAIPFRSRFFNLKLKNQTSERSRVRSSNQLPRSNKQLFELLCYAESIDDQLNTLLKEFQLTEENTKLRYLTCSLIEDMAAAYFPDCIVRPFGSSVNTFGKLGCDLDMFLDLDETRNLSAHKISGNFLMEFQVKNVPSERIATQKILSVLGECLDHFGPGCVGVQKILNARCPLVRFSHQASGFQCDLTTNNRIALTSSELLYIYGALDSRVRALVFSVRCWARAHSLTSSIPGAWITNFSLTMMVIFFLQRRSPPILPTLDSLKTLADAEDKCVIEGNNCTFVRDLSRIKPSQNTETLELLLKEFFEYFGNFAFDKNSINIRQGREQNKPDSSPLYIQNPFETSLNISKNVSQSQLQKFVDLARESAWILQQEDTDRPSISSNRPWGLVSLLLPSAPNRKSFTKKKSNKFAIETVKNLLESLKGNRTENFTKTSGKRTISTQT
# B5: Microphthalmia-associated transcription factor (Homo sapiens), O75030 (parent)
# chain: MQSESGIVPDFEVGEEFHEEPKTYYELKSQPLKSSSSAEHPGASKPPISSSSMTSRILLRQQLMREQMQEQERREQQQKLQAAQFMQQRVPVSQTPAINVSVPTTLPSATQVPMEVLKVQTHLENPTKYHIQQAQRQQVKQYLSTTLANKHANQVLSLPCPNQPGDHVMPPVPGSSAPNSPMAMLTLNSNCEKEGFYKFEEQNRAESECPGMNTHSRASCMQMDDVIDDIISLESSYNEEILGLMDPALQMANTLPVSGNLIDLYGNQGLPPPGLTISNSCPANLPNIKRELTACIFPTESEARALAKERQKKDNHNLIERRRRFNINDRIKELGTLIPKSNDPDMRWNKGTILKASVDYIRKLQREQQRAKELENRQKKLEHANRHLLLRIQELEMQARAHGLSLIPSTGLCSPDLVNRIIKQEPVLENCSQDLLQHHADLTCTTTLDLTDGTITFNNNLGTGTEANQAYSVPTKMGSKLEDILMDDTLSPVGVTDPLLSSVSPGASKTSSRRSSMSMEETEHTC
# B6: LIM domain-binding protein 3 (Homo sapiens), O75112 (parent)
# chain: MSYSVTLTGPGPWGFRLQGGKDFNMPLTISRITPGSKAAQSQLSQGDLVVAIDGVNTDTMTHLEAQNKIKSASYNLSLTLQKSKRPIPISTTAPPVQTPLPVIPHQKDPALDTNGSLVAPSPSPEARASPGTPGTPELRPTFSPAFSRPSAFSSLAEASDPGPPRASLRAKTSPEGARDLLGPKALPGSSQPRQYNNPIGLYSAETLREMAQMYQMSLRGKASGVGLPGGSLPIKDLAVDSASPVYQAVIKSQNKPEDEADEWARRSSNLQSRSFRILAQMTGTEFMQDPDEEALRRSSTPIEHAPVCTSQATTPLLPASAQPPAAASPSAASPPLATAAAHTAIASASTTAPASSPADSPRPQASSYSPAVAASSAPATHTSYSEGPAAPAPKPRVVTTASIRPSVYQPVPASTYSPSPGANYSPTPYTPSPAPAYTPSPAPAYTPSPVPTYTPSPAPAYTPSPAPNYNPAPSVAYSGGPAEPASRPPWVTDDSFSQKFAPGKSTTSISKQTLPRGGPAYTPAGPQVPPLARGTVQRAERFPASSRTPLCGHCNNVIRGPFLVAMGRSWHPEEFTCAYCKTSLADVCFVEEQNNVYCERCYEQFFAPLCAKCNTKIMGEVMHALRQTWHTTCFVCAACKKPFGNSLFHMEDGEPYCEKDYINLFSTKCHGCDFPVEAGDKFIEALGHTWHDTCFICAVCHVNLEGQPFYSKKDRPLCKKHAHTINL
# Variants of: B1
# Conditions: with ima3_human KPNA4, O00629
# Sequence of ima3_human KPNA4, O00629 (O00629 whole entry): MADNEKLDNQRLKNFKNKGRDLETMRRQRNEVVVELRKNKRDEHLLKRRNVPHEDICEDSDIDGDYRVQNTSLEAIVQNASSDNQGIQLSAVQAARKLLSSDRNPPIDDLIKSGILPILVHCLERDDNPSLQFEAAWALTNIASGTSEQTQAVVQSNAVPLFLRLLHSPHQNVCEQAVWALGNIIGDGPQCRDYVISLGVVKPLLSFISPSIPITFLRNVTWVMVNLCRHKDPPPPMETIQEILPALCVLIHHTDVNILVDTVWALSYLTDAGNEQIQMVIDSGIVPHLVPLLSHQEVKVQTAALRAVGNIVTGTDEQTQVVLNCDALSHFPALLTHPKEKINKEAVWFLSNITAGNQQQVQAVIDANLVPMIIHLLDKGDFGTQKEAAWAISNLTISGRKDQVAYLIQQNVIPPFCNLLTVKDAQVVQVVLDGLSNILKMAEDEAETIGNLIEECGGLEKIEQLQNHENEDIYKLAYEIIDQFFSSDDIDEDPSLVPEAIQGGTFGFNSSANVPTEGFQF
row,effect of a mutation on the interaction,Variant
1,decreasing interaction strength,R361Q

# Variants of: B2
# Conditions: with gga1_human GGA1, Q9UJY5
row,effect of a mutation on the interaction,Variant
1,decreasing interaction strength,D1424H

# Variants of: B3
# Conditions: with mlp3b_human MAP1LC3B
row,effect of a mutation on the interaction,Variant
1,increasing interaction strength,S492F

# Variants of: B3
# Conditions: with gbrl1_human GABARAPL1, Q9H0R8
# Sequence of gbrl1_human GABARAPL1, Q9H0R8 (Q9H0R8 whole entry, looked up): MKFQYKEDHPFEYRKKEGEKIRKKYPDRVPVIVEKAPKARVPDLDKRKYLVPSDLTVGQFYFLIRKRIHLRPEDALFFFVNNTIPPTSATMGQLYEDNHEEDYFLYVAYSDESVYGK
row,effect of a mutation on the interaction,Variant
1,increasing interaction strength,S492F

# Variants of: B4
# Conditions: with eps15_human EPS15, P42566
# Sequence of eps15_human EPS15, P42566 (P42566 whole entry): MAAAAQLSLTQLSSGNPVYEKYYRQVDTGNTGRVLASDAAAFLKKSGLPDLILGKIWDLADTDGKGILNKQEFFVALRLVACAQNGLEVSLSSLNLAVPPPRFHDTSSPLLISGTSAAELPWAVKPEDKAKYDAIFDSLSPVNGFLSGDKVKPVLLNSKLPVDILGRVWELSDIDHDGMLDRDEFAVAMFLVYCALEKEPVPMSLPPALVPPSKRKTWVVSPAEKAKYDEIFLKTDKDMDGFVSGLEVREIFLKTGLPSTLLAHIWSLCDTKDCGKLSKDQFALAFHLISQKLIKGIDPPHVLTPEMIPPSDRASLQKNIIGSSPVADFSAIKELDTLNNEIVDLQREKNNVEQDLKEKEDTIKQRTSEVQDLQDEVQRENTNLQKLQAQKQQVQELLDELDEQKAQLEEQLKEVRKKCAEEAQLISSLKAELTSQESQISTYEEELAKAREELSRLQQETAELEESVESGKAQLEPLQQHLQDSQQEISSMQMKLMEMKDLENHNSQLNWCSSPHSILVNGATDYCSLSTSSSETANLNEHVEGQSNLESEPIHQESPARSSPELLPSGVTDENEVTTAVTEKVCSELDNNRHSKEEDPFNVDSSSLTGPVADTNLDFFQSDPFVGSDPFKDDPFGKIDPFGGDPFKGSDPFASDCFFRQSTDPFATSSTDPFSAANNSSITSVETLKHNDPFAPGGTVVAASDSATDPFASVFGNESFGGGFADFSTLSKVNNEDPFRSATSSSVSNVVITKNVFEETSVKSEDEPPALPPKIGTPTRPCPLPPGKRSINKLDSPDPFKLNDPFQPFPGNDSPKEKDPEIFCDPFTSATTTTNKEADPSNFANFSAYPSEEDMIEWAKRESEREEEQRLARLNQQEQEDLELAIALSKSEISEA
row,effect of a mutation on the interaction,Variant
1,decreasing interaction strength,N478D

# Variants of: B5
# Conditions: with clh1_human CLTC
row,effect of a mutation on the interaction,Variant
1,with no effect,Y265C

# Variants of: B6
# Conditions: with src_human SRC
row,effect of a mutation on the interaction,Variant
1,decreasing interaction strength,P99S

# — IntAct's records for PubMed 39009827
